Assays:
Test in all cases: purified protein
Format in all cases: biochemical, Dictyostelium discoideum
purified protein [1] = substrate: CCn1c(=NN=c2sc3cc(S(=O)(=O)O)ccc3n2CC)sc2cc(S(=O)(=O)O)ccc21; settings: 1 mM H2O2, 50 mM sodium acetate pH 4.0, 150 mM NaCl, 25 °C
purified protein [2] = substrate: COc1ccc(CO)cc1OC; settings: 1 mM H2O2, 50 mM sodium acetate pH 4.0, 150 mM NaCl, 25 °C
purified protein [3] = substrate: Nc1c(S(=O)(=O)O)cc(Nc2ccc(S(=O)(=O)O)c(Nc3nc(Cl)nc(Cl)n3)c2)c2c1C(=O)c1ccccc1C2=O; settings: 1 mM H2O2, 50 mM sodium citrate pH 3.0, 150 mM NaCl, 25 °C

B1: Dictyostelium DyPA (Dictyostelium discoideum) (protein)
chain: MAQSTVLPMHCLYGIFLEGNLKIQKNDQEGLKKFKDNIKKFTLELDEIDKISPQSRIGGAICFSSDIWDTVTKKISKPKELKSVNTLSSYMPGTSQRDILIHIISDRMDTCFKLAQDTMRNFGEDQLDIKQEIHGFRRVEERDLTDFIDGTENPDGDELRTQYGLVAAGQPNEFGSYVFTQRYVHNLKKWYPEPLSVQQDTVGRTKKDSIEIPRDKRPITSHVSRTDLSENGKDLKIVRQSLPYGQITGEKGLMFIAYACSLHNIEKQLQSMFGQLDGKHDLLLKYTTPVTGSFYFAPSKKELLEL
notes: recombinant from E. coli Rosetta(DE3)pLysS, heme-reconstituted with hemin; homodimer
- Km (purified protein [1]): 4.1 ± 0.4 mM
- kcat (purified protein [1]): 89.9 ± 4.3 s⁻¹
- kcat/Km (purified protein [1]): 21900 M⁻¹ s⁻¹
- Km (purified protein [2]): 0.166 ± 0.058 mM
- kcat (purified protein [2]): 0.000338 ± 3.5e-05 s⁻¹
- kcat/Km (purified protein [2]): 2.03 M⁻¹ s⁻¹
- Km (purified protein [3]): 0.04 ± 0.01 mM
- kcat (purified protein [3]): 5.2 ± 0.38 s⁻¹
- kcat/Km (purified protein [3]): 130000 M⁻¹ s⁻¹

— PMC8230527, “Structural and Biochemical Characterization of a Dye-Decolorizing Peroxidase from Dictyostelium discoideum” (International Journal of Molecular Sciences, 2021)
